The values that follow come from patent US20200347144A1 (SHANGHAI HYAMAB BIOTECH, published 2020).

Broadly, the EC50 (read off the curve) is the concentration needed to bring the measured effect to its halfway point.

Experiment [1] addresses T1, mouse 4-1BB protein (extracellular domain) (mouse, UniProt P20334 24-187).
T1 construct: extracellular domain; also called mouse 4-1BB-his; mouse 4-1BB-hFc protein
T1 sequence (looked up): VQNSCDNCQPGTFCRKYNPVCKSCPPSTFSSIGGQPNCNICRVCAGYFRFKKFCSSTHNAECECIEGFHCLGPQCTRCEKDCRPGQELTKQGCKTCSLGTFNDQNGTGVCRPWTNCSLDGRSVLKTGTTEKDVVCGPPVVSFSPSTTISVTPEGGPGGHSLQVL
Nature of the experiment: ELISA, coated mouse 4-1BB; Ab 0.0001 ug/ml. How it is done:
(§1) The purified immunogen A (4-1BB-hFc), monkey 4-1BB-his, and mouse 4-1BB-his obtained in Example 1 [for the preparation method, see step 1 of Example 1, preparation of immunogen A], of which the extracellular domain of monkey-derived 4-1BB protein (purchased from ACRO biosystems), the extracellular domain of mouse 4-1BB protein (purchased from sino biological) or other immune detection point proteins respectively were diluted with PBS to a final concentration of 1.0 μg/mL, then added with […] per well to 96-well ELISA plate. It was sealed with plastic film and incubated at 4° C. overnight. The next day, the plate was washed twice with the plate-washing solution [PBS containing 0.01% (v/v) Tween20] and blocking solution [PBS containing 0.01% (v/v) Tween 20 and 1% (v/v) BSA] was added and blocked at room temperature for 2 hours. The blocking solution was discarded and 100 μl of the purified 4-1BB antibody obtained in Example 2 was added per well. After incubated at 37° C. for 2 hours, the plate was washed 3 times with a plate-washing solution [PBS containing 0.01% (v/v) Tween20]. A secondary antibody (purchased from Sigma) labeled with HRP (horseradish peroxidase) was added, and after incubated at 37° C. for 2 hours, the plate was washed 3 times with a plate-washing solution [PBS containing 0.01% (v/v) Tween20]. 100 μl of TMB substrate was added per well. After incubated for 30 minutes at room temperature, 100 μl of stop buffer (1.0N HCl) was added per well. The A450 nm values were read using an ELISA plate reader (SpectraMax 384plus, Molecular Device).

In experiment [2] the target is T2, monkey 4-1BB-his protein (monkey).
T2 construct: extracellular domain; Bought protein; also called extracellular domain of monkey-derived 4-1BB protein
The experiment in a line: ELISA, coated monkey 4-1BB-his; Ab 0.0006 ug/ml. How it is done:
as §1
In general terms: In an ELISA, binding on a coated surface is turned into a signal by an enzyme label.

Experiment [3] concerns the target T2, monkey 4-1BB-his protein. The experiment in a line: ELISA, coated monkey 4-1BB-his; Ab 0.0001 ug/ml. How it is done: as §1
Experiment [4] concerns the target T1, mouse 4-1BB protein (extracellular …). Nature of the experiment: ELISA, coated mouse 4-1BB; Ab 0.4 ug/ml. How it is done:
as §1

In experiment [5] the target is T2, monkey 4-1BB-his protein. Nature of the experiment: ELISA, coated monkey 4-1BB-his; Ab 2 ug/ml. The protocol:
as §1

For experiment [6], the target named is T1, mouse 4-1BB protein (extracellular …). The experiment in a line: ELISA: mouse 4-1BB protein coated at 1.0 µg/mL (target by Table 10; the legend paragraph 119 says monkey 4-1BB-hFc), antibody titrated, HRP secondary antibody, OD450. The protocol: as §1
The target of experiment [7] is T2, monkey 4-1BB-his protein. Nature of the experiment: ELISA, coated monkey 4-1BB-his; Ab 10 ug/ml. How it is done: as §1
Experiment [8] deals with T2, monkey 4-1BB-his protein. The experiment in a line: ELISA, coated monkey 4-1BB-his; Ab 0.016 ug/ml. How it is done: as §1
The target in experiment [9] is T1, mouse 4-1BB protein (extracellular …). Nature of the experiment: ELISA, coated mouse 4-1BB; Ab 10 ug/ml. How it is done: as §1
Experiment [10] has the same target. The experiment in a line: ELISA, coated mouse 4-1BB; Ab 0.0032 ug/ml. The protocol:
as §1

Experiment [11] addresses T2, monkey 4-1BB-his protein. The experiment in a line: ELISA, coated monkey 4-1BB-his; Ab 0.4 ug/ml. How it is done: as §1
In experiment [12] the target is T3, monkey 4-1BB on CHOK1 cells (monkey).
T3 construct: whole, on cells; also called CHOK1-c4-1BB
The experiment in a line: FACS on CHOK1-c4-1BB cells, Alexa 488 secondary antibody, average fluorescence intensity. An excerpt: The pIRES plasmid carrying the full-length gene of monkey-derived […] (the preparation method is the same as the preparation method of the pCpC vector carrying the human-derived IgG Fc fragment (hFc) in “Preparation of immunogen A” of the step (1) in Example 1, in which the database accession number of the amino acid sequence of the extracellular region of monkey 4-1BB protein (Phe19-Thr239) is G7PSE7) was transfected into CHOK1 cell line to obtain CHOK1 stable transfected cell line containing monkey 4-1BB (herein referred to as CHOK1-c4-1BB stable cell line). The CHOK1-h4-1BB stable cell line and the CHOK1-c4-1BB stable cell line were expanded and cultivated to 90% confluence in T-75 cell culture flasks. The medium was exhausted, and washed twice with HBSS buffer (Hanks Balanced Salt Solution, purchased from Invitrogen), and then the cells were treated and collected with enzyme-free cell dissociation solution (Versene solution, purchased from Life Technology). The cells were washed twice with HBSS buffer, and after cell counting, the cells were diluted with HBSS buffer to 2×10⁶ cells per ml, and 1% goat serum blocking solution was added, the percentage being the mass percentage. It was incubated on ice for 30 minutes, and then washed twice with HBSS buffer by centrifugation. The collected cells were suspended in FACS buffer (HBSS containing 1% BSA, the percentage was the mass percentage) to 2×10⁶ cells/mL, and 100 μl per well was added to a 96-well FACS reaction plate. The purified 4-1BB antibody test sample obtained in Example 2 was added, 100 microliters per well and incubated on ice for 2 hours. […] It was washed three times with FACS buffer by centrifugation, and 100 μl of fixative [4% (v/v) paraformaldehyde] per well was added to suspend cells, and washed twice with FACS buffer after 10 minutes by centrifugation. The cells were suspended with 100 microliters of FACS buffer, and the results were detected and analyzed with FACS (FACS Calibur, purchased from BD).

Experiment [13] addresses T1, mouse 4-1BB protein (extracellular …). The experiment in a line: ELISA, coated mouse 4-1BB; Ab 0.08 ug/ml. The protocol:
as §1

Experiment [14] has the same target. Nature of the experiment: ELISA, coated mouse 4-1BB; Ab 0.0006 ug/ml. The protocol: as §1
The target is the same in experiment [15]. The experiment in a line: ELISA, coated mouse 4-1BB; Ab 0.016 ug/ml. The protocol:
as §1

B1: 57B3D10 (antibody, V domains shown)
VH: QVQLQESGPGLVKPSETLSLTCTVSGGSISSYYWSWIRQPPGKGLEWIGYIYYSGSTNYNPSLKSRVTISVDTSKSQFSLKLTSVTAADTAVYYCAKDSDYYGSGSYSYWYFDLWGRGTLVTVSS
VL: EIVMTQSPATLSVSPGERATLSCRASQSVSSNLAWYQQKPGQAPRLLIYGASTRAPGIPARFSGSGSGTEFTLTISSLQSEDFAVYYCQQYNNWPLTFGGGTKVEIK
notes: also called 4-1BB fully human antibody 57B3D10
As for B1, the OD450 nm in experiment [1] amounted to 0.05 OD450 nm; with monkey 4-1BB-his protein [2] it was 0.1 OD450 nm; in the experiment with monkey 4-1BB-his protein [3] it was 0.08 OD450 nm; in experiment [4], 0.28 OD450 nm; with monkey 4-1BB-his protein [5], 2.47 OD450 nm; with monkey 4-1BB-his protein [7], 2.42 OD450 nm. The OD450 nm worked out at 0.81 OD450 nm with monkey 4-1BB-his protein [8]; 0.24 OD450 nm in [9]; 0.2 OD450 nm in experiment [10]; 2.44 OD450 nm with monkey 4-1BB-his protein [11]; 0.14 OD450 nm in experiment [13]; 0.05 OD450 nm in [14]. In [15], this molecule yielded an OD450 nm of 0.16 OD450 nm. Moreover, the binding result in experiment [6] was “no binding (tested: 10 µg/ml)”. Further, the “EC50 (read off the curve)” value in [12] was approximately 0.1 µg/mL.

B2: 113F6C6 (antibody, V domains shown)
VH: QVQLVESGGGVVQPGRSLRLSCAASGLTFSSYGMHWVRQAPGKGLEWVAVIWYDGSNKYYADSVKGRFTISRDNSKNTLYLQMNSLRAEDTAVYYCAREEVLWFGELSYNYYYGMDVWGQGTTVTVSS
VL: DIQMTQSPSSLSASVGDRVTITCRASQGISNYLAWYQQKPGKVPKLLIYAASTLQSGVPSRFSGSGSGTDFTLTISSLQPEDVATYYCQKYNSVPLTFGGGTKVEIK
notes: also called 4-1BB fully human antibody 113F6C6; 113F6F6
B2: the OD450 nm in experiment [1] stood at 0.05 OD450 nm; in the experiment with monkey 4-1BB-his protein [2], 0.08 OD450 nm; in the experiment with monkey 4-1BB-his protein [3], 0.07 OD450 nm; in experiment [4], 0.08 OD450 nm; in the experiment with monkey 4-1BB-his protein [5], 2.2 OD450 nm; with monkey 4-1BB-his protein [7], 2.36 OD450 nm. Also, the OD450 nm came to 0.47 OD450 nm in the experiment with monkey 4-1BB-his protein [8]; 0.25 OD450 nm in [9]; 0.05 OD450 nm in [10]; 2.14 OD450 nm with monkey 4-1BB-his protein [11]; 0.05 OD450 nm in experiment [13]; 0.05 OD450 nm in experiment [14]. The same molecule came in with an OD450 nm in experiment [15] of 0.05 OD450 nm. Besides, the binding result in experiment [6] is “no binding (tested: 10 µg/ml)”. The “EC50 (read off the curve)” value in [12] is approximately 0.1 µg/mL.
